Experimental findings from patent publication US20230151069A1, “Cyclic Peptides” (LIFEARC, priority 2020, published 2023) are described below.

The test system of series [1] is 5XFAD mice. As to the kind of experiment: Active immunisation, plaque load by immunohistochemistry in 5XFAD brain sections. It counts as in vivo. Particulars: 5XFAD mouse cortex, FIG. 29. The protocol: 5XFAD mice were immunized with antigen [Thioacetal bridged amyloid-beta peptide 1-14—KLH conjugate; DAC*[…]*HH[Cys]-amide (*S—CH—S bridged, cyclised via positions 3 and 12)] as described previously.
Mice were sacrificed via CO2 anesthetization followed by cervical dislocation. Brain samples were carefully dissected and post-fixed in 4% phosphate-buffered formalin at 4° C. Human and mouse tissue samples were processed as previously described 4. In brief, 4 μm paraffin sections were deparaffinized in xylene, followed by rehydration in a series of ethanol. […] Non-specific binding sites were blocked by treatment with skim milk and fetal calf serum in PBS, prior to the addition of the primary antibodies. The following antibodies were used: polyclonal antibody 24311 against […], monoclonal antibody 1-57 against pyroglumatate Aβ3-X, (Synaptic Sytems, GOttingen, Germany; 1 mg/ml; 1:500), and TAP01_4 (1:200; 2 mg/ml). Corresponding biotinylated secondary anti-human and anti-mouse antibodies (1:200) were purchased from DAKO (Glostrup, Denmark). Staining was visualized using the ABC method, with a Vectastain kit (Vector Laboratories, Burlingame, USA) and diaminobenzidine (DAB) as chromogen. Counterstaining was carried out with hematoxylin.
Plaque load was quantified as previously described (G. Antonios et al., Alzheimer therapy with an antibody against N-terminal Abeta 4-X and pyroglutamate Abeta 3-X. Scientific reports 5, 17338 (2015)). 5-6 paraffin embedded sections, which were at least 80 μm afar from each other, were stained simultaneously with DAB as chromogen. For Thioflavin S fluorescent staining tissue sections were deparaffinized and rehydrated, washed twice in deionized water and then treated with 1% (w/v) ThioflavinS in aqueous solution and counterstained in a 1% (w/v) aqueous solution of 4′6-diamidin-2-phenylindol. The relative Aβ load was evaluated using an Olympus BX-51 microscope equipped with an Olympus DP-50 camera and the ImageJ software (NIH, USA). Representative pictures of 100× magnification were systematically captured. […]

In series [2] the test system is 5XFAD mice. The series can be described thus: Active immunisation, in vivo glucose metabolism by 18F-FDG-PET/MRI in 5XFAD mice. Particulars: immunized 5XFAD mice, FIG. 30. Details: species or system mouse. The protocol:
18F-FDG-PET/MRI was performed on 5xFAD mice as well as age matched C57Bl/6J wild type mice. Mice were fasted overnight and blood glucose levels were measured before tracer injection. 11.46 to 20.53 MBq (mean 16.81 MBq) 18F-FDG was injected intravenously into a tail vein with a maximum volume of 200 μl followed by an uptake period of 45 minutes. Mice were awake during the uptake process. PET scans were performed for 20 minutes using a small animal 1 Tesla nanoScan PET/MRI (Mediso, Hungary). Mice were anesthetized with isoflurane supplemented with oxygen during the scans and kept on a heated bed (37° C.). Respiratory rate was measured throughout the imaging process. […]
All images were analyzed using PMOD v3.9 (PMOD Technologies, Switzerland) as described before (Bouter et al). […] PET VOI statistics (kBq/cc) were generated for all brain areas and standardized uptake values (SUVs) were calculated [SUV=tissue activity concentration average (kBq/cc)×body weight (g)/injected dose (kBq)] for semi-quantitative analysis. SUVs of 18F-FDG-PET scans were corrected for measured blood glucose levels [SUVGIc=SUV x blood glucose level (mg/dl)]. […]
In vivo glucose metabolism on Alzheimer mice (5XFAD) as well as age matched C57Bl/6J wild type mice was analysed by 18F-FDG-PET/MRI imaging as described above.

Series [3] deals with full-length amyloid-beta 1-42. The series can be described thus: Reactivity of antibodies induced by the cyclic peptide with full-length amyloid-beta. It counts as in vivo. As to conditions: antibodies induced by immunisation. As for the experimental part: • 1. Coat 384-well plate with 30 μL/well of 100 ng/ml PSL amyloid 1-42 peptide (Human-Peptide Specialty Laboratories-CEM1904161) diluted in carb/bicarb buffer • 2. Incubate at 37° C. for 1 hour • 3. Wash the plate (NUNC 384 program) • 4. […] Incubate at 4° C. overnight • 6. Wash the plate (NUNC 384 program) • 7. […] Transfer 30 μL/well onto the assay plate • 10. Incubate at 37° C. for 1 hour • 11. Wash the plate (NUNC 384 program) • 12. […] Incubate at 37° C. for 1 hour • 14. Wash the plate (NUNC 384 program) • 15. […] Incubate at RT for 10 min in the dark • 17. […] Coat 384-well plate with 30 μL/well of 100 ng/ml PSL amyloid pE3-42 peptide (Human-Peptide Specialty Laboratories-CEM062210 Pyr) diluted in carb/bicarb buffer • 2. Incubate at 37° C. for 1 hour • 3. Wash the plate (NUNC 384 program) • 4. […] Incubate at 4° C. overnight • 6. Wash the plate (NUNC 384 program) • 7. […] Transfer 30 μL/well onto the assay plate • 10. Incubate at 37° C. for 1 hour • 11. Wash the plate (NUNC 384 program) • 12. […] Incubate at 37° C. for 1 hour • 14. Wash the plate (NUNC 384 program) • 15. […] Incubate at RT for 10 min in the dark • 17.

In the case of “DAC*FRHDSGYEC*HH[Cys]-amide (*S—CH—S bridged, cyclised via positions 3 and 12)”, the “amyloid-plaque load in brain tissue (pan-Abeta, pyroglutamate Aβ3-X, Thioflavin S, N-truncated Aβ stainings)” value in the series on 5XFAD mice [1] (listed as 3-12 linked Aβ1-14 cyclic peptide) is recorded as “reduction in amyloid-plaque load”; in the series with 5XFAD mice [1] (listed as cyclised Aβ peptides) it was “strong reduction of plaques”; in the series on 5XFAD mice [1] (listed as cyclized Aβ peptide), “significant reduction in plaque load”. For the same substance, the “brain glucose metabolism (18F-FDG uptake)” value in the series on 5XFAD mice [2] is reported as “significant rescue”. In addition, the “reactivity of induced antibodies with full-length amyloid-beta 1-42” value in series [3] is listed as “do not react”.
